Reference: the nanobody polyreactivity screen of Harvey et al. (2022)

Assay: yeast display, Sf9 membrane polyspecificity reagent, FACS + sequencing; frameworks hold sequencing errors
Summary of the method: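 Galactose induction of a Saccharomyces cerevisiae BJ5465 synthetic nanobody display library ran 36–48 hours. The cells were then stained for 1 hour at 4 °C with 10% biotinylated, detergent-solubilized Sf9 membrane reagent, pulled down on streptavidin microbeads and FACS-sorted into low and high (top ~1%) gates on expression and reagent-binding fluorescence. Labels for polyreactivity follow the gate of origin.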

Sequence	polyreactivity (PSR sort gate)
QVQLVESGRGLVQAGGSLRLSSAASGSISLFLTMGWYRQAPGKERELVAAINYTDITKYADSVKGRFTISRDNAKNTVYLQMKSLKPDDTAVYYCARDEGYEYPLGRGGYWGQGTQVTVSS	low polyreactivity
QVQLVESGRGLVQAGGTLRLSCAASGFIFATNTMGWYRQAPGKERELVAASSTYYADSVKGRFTISRDNAKNTVYLQMNSLKPEDTAVYYCNADRDSYIGFVDWAGEYWGQGTQVTVSS	low polyreactivity
QVQLVESGRGLVQAGVSLRLSCAASGSIFDPNAMGWYRQAPGKERELVAAITSGGGSTYYADSVKGRFTISRDNAKNTVYLQMNSLKPEDTAVYYCNKVFVLQYKFVAWFDYWGQGTQVTVSS	low polyreactivity
QVQLVESGRGLVQEGGSLRLSCAPSGSTFTSYAMGWSRQAPGKERELVAAINYSGGSTNYADSVKGRFTLSRDNAMNTVYLQMNSLKPEDTAVYYFNVVRRSPGDYSYYYWGQGTQVTVSS	low polyreactivity
QVQLVESGVCLVQAGGSLLLSCAASRRIFRNAMGWYRHAPGKERELVAAISSGGTTNYADSVKGRFTISRDNAKNTVYLLMNSLKPEDTAVYYCAAAPSSYRYRYVVFTFGYWGQGTQVTVSS	high polyreactivity
QVQLVESGVCLVQAGRSLPLSCAASGFTFDSNAMGWSRQAPGNESELVAAISASRDSTYYADSVKGRFTISRDNAKNTVYLQMNSLKPEETAVYYCAADSSDWPYDYWGQCTQVTVSS	low polyreactivity
QVQLVESGVGFVQAGASLRLSSAASGSIFRINAMGWYRQAPGKVRELVAAITRSGGSTFYADSVKGRFTMSRDYAKNTVYFQMHSLTPEDTAVYFCAAVWYYSTVPARYEYWGQGTQVTVSS	low polyreactivity
QVQLVESGVGIVQAGGSLRISCAASGTNFLFYAMGWYRQAPGKERELVATISRGGSTYYADSVKGRFTISRDNAKNTVYFQMKSLKPEDTAVYYCAARATRVTIAPRYGYWGQGTQVTVSS	low polyreactivity
QVQLVESGVGIVQAGGSLRLSCAASGSIFKTNAMGWYRHAPGNERELVAAITGSGGSTYYADSVKGRFTISRDNAKNNVYLQMMSLKPEDTAVYYCAKRSYRPILRWSYDYWGQGTQVTVSS	low polyreactivity
QVQLVESGVGLLQAGGILRISCASSGITFAWYAMVRYRQAPGKERELVAAIDDRGGSTYYADSVKGRFTISRDNAKNTVYFQMNSLKPEDTAVFYCNADTPSYEPYRLDYWGHGTQVTVSS	low polyreactivity
QVQLVESGVGLLQAGGSLRLSCAAYGYTMGLYRQAPGKEREFVAAINQTGGSTSADSVKGRFTISRDNANNTVYLQLNSLKPEDTAVYYCAADISVYSDSHDVSINYRYDYWGLGTQVTVSS	low polyreactivity
QVQLVESGVGLVPAGGSLRLSCAASGSTFSANAMGWYRQAPGKERELVAAITYRGANTYYADSVKGRFTISRDNAKNTVYLQLNSLKPEDTAVYYCAAEYAYHHVGFGYWGQGTQVTVSS	low polyreactivity
QVQLVESGVGLVQAGGILRLSCAASGSIFAVNAMGWYRQAPGKERELFAAISKRGGSTYYADSVKGRFTISRDNAKNTVYLQMNSLKPEDTAVYYCAARILVTYHRDYYYWGLGTQVTVSS	high polyreactivity
QVQLVESGVGLVQAGGRLRLSCAASGSTFLRYAMGWYRPAPGKERELVAAISYSGGSTYYADSVKGRFTISRDNAKNTVYLQMNSLKPEDTAVYYCNAGVFANDNGGRRDQFTWEYEYWGQGTQVTVSS	low polyreactivity
QVQLVESGVGLVQAGGSHRLSCAASGPTFRYNTMGWYRQAPGKERELVASISSGDRTDYADSVKGRFTISRDNAKYTVYLQMNSLKPEDTAVYYCNNKWYSIYYYWGQGTQVTVSS	high polyreactivity
QVQLVESGVGLVQAGGSLRISCAASGFIFDWNAMGWYRQAPGKERELVAAISSGGSTHYADSVKGRFTISRDNAKNTVYLQMNSLKPEDTAVYYCAARFPQWRYSRRTGERFDYWGQGTQVTVSS	low polyreactivity

Sequence	polyreactivity (PSR sort gate)
QVQLVESGVGLVQAGGSLRISCAASGFIFVTNVMGWYRQAPGKEREFVAAITARGGTTYYADSVKGRFTISRDNAKNTVYLQMNRLKPEDTAVYYCAAGYGVIKSLSHFYYWGQGTQVTVSS	low polyreactivity
QVQLVESGVGLVQAGGSLRISCAASGRILGYYAMGWYRQAPGKEREMVAGISYSAGRTYYADSVKGRFTISRDNAKNTVYLQMNSLKPEDTAVYYCAKALVRSGSTRGTTGYYYWGQGTQVTVSS	high polyreactivity
QVQLVESGVGLVQAGGSLRISCAASGSTFAAKSMGWYRQAPGKEREWVAVIRRGGSTTYADSVKGRFTISRDNAKNTVYLQMNSLKPEATAVYYCAASLYGKGDYWGQGTQVTVSS	high polyreactivity
QVQLVESGVGLVQAGGSLRLICAASGFILGQNAMGWYRQAPGKEREFVADISWSGDSTYYADSVKGRFTISRDNAKNTVYFQMNSLKPEDTAVYYCAADPYYNWGYYYWGQGTQVTVSS	low polyreactivity
QVQLVESGVGLVQAGGSLRLICAASGSIFGYNAMGWYRQAPGKERELVAAISRSGGRTYYADSVKGSFTISRDNAKNTVYLQMNSLKPEDTAVYYCAASRPGLRTPGQMGYWGQGTQVTVSS	high polyreactivity
QVQLVESGVGLVQAGGSLRLSCAASGFIFKRYAMGWYRQAPGKERELVATISNSGGRTYYADSVKWRFTISRDNAKNTVYLQMNSLKPEDTAVYYCAALPFWWGGYWGQGTQVTVSS	high polyreactivity
QVQLVESGVGLVQAGGSLRLSCAASGFIFWLYAMGWYRQAPGKERELVAGITRGGGSTYYADSVKRRFTISRDNAKNTVYLQMNSLKPEDTAVYYCAADAWSSYLDRPFDYWGQGTQVTVSS	high polyreactivity
QVQLVESGVGLVQAGGSLRLSCAASGFTFDDNAMGWYRQAPGKERDFVASITNSTGSTYADSVKGRFTISRDNAKNTFYLQMNSLKPEDTAVDYCAVDNISNWAVENDYWGQGTQVTVSS	low polyreactivity
QVQLVESGVGLVQAGGSLRLSCAASGGIFGKYVMGWSRQAPGKERELVAAITLRGGSTYYADSVKGRFTISRDNAKNTVYLQMNSLKPEDTAVYYCPRRAYQNWYNYWGQGTQVTVSS	high polyreactivity
QVQLVESGVGLVQAGGSLRLSCAASGIFYGYAMGWYRQAPGKERELVAAISSGGSTYYADSVKGRFTISRDNAKNTVYLQMISLNPEDTAVYYCAAGKKRPGWTFPRYYWGQGTQVTVSS	high polyreactivity
QVQLVESGVGLVQAGGSLRLSCAASGIIFASNGMGWYRQAPGKERELVAAISSGGSTNYADSVKGRFTISRDNAKNTVYLQMNSLKPEDTAVYYCAADRWNREYDYWGQGTQVTVSS	low polyreactivity
QVQLVESGVGLVQAGGSLRLSCAASGLIFFFYAMGWYRQAPGKERELVASISGGGITYYADSVKGRFTISRDNAKNTVYLQMNSLKPEDTAVIKNDYWGQGTQVTVSS	low polyreactivity
QVQLVESGVGLVQAGGSLRLSCAASGLIFGRNVMGWYRQAPGKERVLVAAISWSGGRTYYADSVKGRFTISRDNAKNTGYLQMNRLKPEDTAVDYCATDRSTRTYRSPYDYWGQGTQVTVSS	high polyreactivity
QVQLVESGVGLVQAGGSLRLSCAASGLIFYHNAMGWYRQAPGKERELVAAISRSGGRTYYADSVKGRFTISRDNAKNTVYLQMNSLKPEDSAVYYCAVYRSSDFDYWGQGTQVTVSS	high polyreactivity
QVQLVESGVGLVQAGGSLRLSCAASGLTFDYNAMGWYRQAPGKERELVARISRSGGTTYYADSVKGRFTISRDNAKNTVYLQMNSLKPEDTAVYYCAAERYYVGAYGYWGQGTQVTVSS	high polyreactivity
QVQLVESGVGLVQAGGSLRLSCAASGRIFAGYAMGWYRQAPGKERELVATISSGGSTYYADSVKGRFTISRDNAKNTVYLQMNSLKPEDTAVYYCAAEYGTRQYSSYYKLFNYWGQGTQVTVSS	low polyreactivity
